We go through one substance from patent publication US20230287402A1.

The assay has as its target GFP-60mer nanocages. Nature of the assay: absorbance at 490 nm and 570 nm of the complex purified by size exclusion chromatography.

Consider “GBP-mScarlet, purified fusion of the anti-GFP nanobody and mScarlet (VHH)”, for which the ratio GFP/mScarlet in the purified complex amounted to 0.95.
